Data set [1] deals with HeLa Kyoto. As to the kind of experiment: thermal stability score vs G1/S (z-score of summed log2 fold changes over temperatures); higher = more thermally stable than in G1/S.
Data set [2] concerns HeLa Kyoto. Briefly: melting temperature (median over replicates), in situ; higher = more thermally stable.
In data set [3] the test system is HeLa Kyoto. Briefly: solubility in G1/S (NP-40 vs SDS abundance) (log2 ratio); higher = more soluble. The following applies: cell cycle stage: G1/S.
The test system of data set [4] is HeLa Kyoto. As to the kind of experiment: solubility change mitosis vs G1/S (difference of NP-40 vs SDS log2 ratios) (log2 ratio difference); higher = more soluble in mitosis.
Setting [5] is: cell cycle stage: early G1 (4.5 h after nocodazole release).
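Wherever melting temperature (median over replicates), in situ is given: HeLa Kyoto cells synchronized by double thymidine or nocodazole block, proteins quantified by TMT10plex mass spectrometry, three independent biological replicates.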
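Wherever solubility change mitosis vs G1/S (difference of NP-40 vs SDS log2 ratios) is given: synchronized HeLa Kyoto cells (double thymidine block for G1/S, nocodazole release for mitosis), protein amounts in NP-40 versus SDS lysates quantified by mass spectrometry, three biological replicates.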
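Wherever solubility in G1/S (NP-40 vs SDS abundance) is given: HeLa Kyoto cells arrested at G1/S by double thymidine block, proteins quantified by TMT10plex mass spectrometry in mild NP-40 versus SDS extracts, three biological replicates.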
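Wherever thermal stability score vs G1/S (z-score of summed log2 fold changes over temperatures) is given: synchronized HeLa Kyoto cells, proteins quantified by TMT10plex mass spectrometry, three biological replicates, mitosis taken 0.5 h after nocodazole release, G1/S directly after double thymidine block.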

Turning to “MAVATAAAVLAALGGALWLAARRFVGPRVQRLRRGGDPGLMHGKTVLITGANSGLGRATAAELLRLGARVIMGCRDRARAEEAAGQLRRELRQAAECGPEPGVSGVGELIVRELDLASLRSVRAFCQEMLQEEPRLDVLINNAGIFQCPYMKTEDGFEMQFGVNHLGHFLLTNLLLGLLKSSAPSRIVVVSSKLYKYGDINFDDLNSEQSYNKSFCYSRSKLANILFTRELARRLEGTNVTVNVLHPGIVRTNLGRHIHIPLLVKPLFNLVSWAFFKTPVEGAQTSIYLASSPEVEGVSGRYFGDCKEEELLPKAMDESVARKLWDISEVMVGLLK [RDH14]”, the thermal stability score in the data set with HeLa Kyoto [1] (setting [5]) came out at 0.98; with HeLa Kyoto [1] (cell cycle stage: mitosis) it was 0.294. Besides, the melting temperature with HeLa Kyoto [2] (cell cycle stage: G1/S) stood at 51.8 °C; in the data set with HeLa Kyoto [2] (cell cycle stage: mitosis) it was 51.6 °C. For the same sequence, the “solubility in G1/S (log2)” value with HeLa Kyoto [3] is -0.158. Further, in the data set with HeLa Kyoto [4], the “solubility change mitosis (log2)” value was found to be 0.0299.

“MAVESRVTQEEIKKEPEKPIDREKTCPLLLRVFTTNNGRHHRMDEFSRGNVPSSELQIYTWMDATLKELTSLVKEVYPEARKKGTHFNFAIVFTDVKRPGYRVKEIGSTMSGRKGTDDSMTLQSQKFQIGDYLDIAITPPNRAPPPSGRMRPY [SAP18]”: the thermal stability score in the data set with HeLa Kyoto [1] (setting [5]) came to 0.467; in the data set with HeLa Kyoto [1] (cell cycle stage: mitosis), 3.26. Also, the melting temperature was 47.5 °C in the data set with HeLa Kyoto [2] (cell cycle stage: G1/S) and 49.7 °C with HeLa Kyoto [2] (cell cycle stage: mitosis). Moreover, the “solubility in G1/S (log2)” value with HeLa Kyoto [3] is -0.67. The “solubility change mitosis (log2)” value with HeLa Kyoto [4] was determined as 0.699.

As for “MAVETLSPDWEFDRVDDGSQKIHAEVQLKNYGKFLEEYTSQLRRIEDALDDSIGDVWDFNLDPIALKLLPYEQSSLLELIKTENKVLNKVITVYAALCCEIKKLKYEAETKFYNGLLFYGEGATDASMVEGDCQIQMGRFISFLQELSCFVTRCYEVVMNVVHQLAALYISNKIAPKIIETTGVHFQTMYEHLGELLTVLLTLDEIIDNHITLKDHWTMYKRLLKSVHHNPSKFGIQEEKLKPFEKFLLKLEGQLLDGMIFQACIEQQFDSLNGGVSVSKNSTFAEEFAHSIRSIFANVEAKLGEPSEIDQRDKYVGICGLFVLHFQIFRTIDKKFYKSLLDICKKVPAITLTANIIWFPDNFLIQKIPAAAKLLDRKSLQAIKIHRDTFLQQKAQSLTKDVQSYYVFVSSWMMKMESILSKEQRMDKFAEDLTNRCNVFIQGFLYAYSISTIIKTTMNLYMSMQKPMTKTSVKALCRLVELLKAIEHMFYRRSMVVADSVSHITQHLQHQALHSISVAKKRVISDKKYSEQRLDVLSALVLAENTLNGPSTKQRRLIVSLALSVGTQMKTFKDEELFPLQVVMKKLDLISELRERVQTQCDCCFLYWHRAVFPIYLDDVYENAVDAARLHYMFSALRDCVPAMMHARHLESYEILLDCYDKEIMEILNEHLLDKLCKEIEKDLRLSVHTHLKLDDRNPFKVGMKDLALFFSLNPIRFFNRFIDIRAYVTHYLDKTFYNLTTVALHDWATYSEMRNLATQRYGLVMTEAHLPSQTLEQGLDVLEIMRNIHIFVSRYLYNLNNQIFIERTSNNKHLNTINIRHIANSIRTHGTGIMNTTVNFTYQFLKKKFYIFSQFMYDEHIKSRLIKDIRFFREIKDQNDHKYPFDRAEKFNRGIRKLGVTPEGQSYLDQFRQLISQIGNAMGYVRMIRSGGLHCSSNAIRFVPDLEDIVNFEELVKEEGLAEETLKAARHLDSVLSDHTRNSAEGTEYFKMLVDVFAPEFRRPKNIHLRNFYIIVPPLTLNFVEHSISCKEKLNKKNKIGAAFTDDGFAMGVAYILKLLDQYREFDSLHWFQSVREKYLKEIRAVAKQQNVQSASQDEKLLQTMNLTQKRLDVYLQEFELLYFSLSSARIFFRADKTAAEENQEKKEKEEETKTSNGDLSDSTVSADPVVK [KIAA1033]”, the figures for the thermal stability score with HeLa Kyoto [1] (setting [5]) and with HeLa Kyoto [1] (cell cycle stage: mitosis) were 0.475 and 0.963, respectively. In addition, the melting temperature in the data set on HeLa Kyoto [2] (cell cycle stage: G1/S) and with HeLa Kyoto [2] (cell cycle stage: mitosis) was 49.7 °C each time. The “solubility in G1/S (log2)” value in the data set on HeLa Kyoto [3] is -0.393. In addition, the “solubility change mitosis (log2)” value in the data set on HeLa Kyoto [4] was -0.0953.

As to “MAVFRSGLLVLTTPLASLAPRLASILTSAARLVNHTLYVHLQPGMSLEGPAQPQSSPVQATFEVLDFITHLYAGADVHRHLDVRILLTNIRTKSTFLPPLPTSVQNLAHPPEVVLTDFQTLDGSQYNPVKQQLVRYATSCYSCCPRLASVLLYSDYGIGEVPVEPLDVPLPSTIRPASPVAGSPKQPVRGYYRGAVGGTFDRLHNAHKVLLSVACILAQEQLVVGVADKDLLKSKLLPELLQPYTERVEHLSEFLVDIKPSLTFDVIPLLDPYGPAGSDPSLEFLVVSEETYRGGMAINRFRLENDLEELALYQIQLLKDLRHTENEEDKVSSSSFRQRMLGNLLRPPYERPELPTCLYVIGLTGISGSGKSSIAQRLKGLGAFVIDSDHLGHRAYAPGGPAYQPVVEAFGTDILHKDGIINRKVLGSRVFGNKKQLKILTDIMWPIIAKLAREEMDRAVAEGKRVCVIDAAVLLEAGWQNLVHEVWTAVIPETEAVRRIVERDGLSEAAAQSRLQSQMSGQQLVEQSHVVLSTLWEPHITQRQVEKAWALLQKRIPKTHQALD [COASY]”, the thermal stability score is 2.77 in the data set with HeLa Kyoto [1] (setting [5]) and 4.34 in the data set with HeLa Kyoto [1] (cell cycle stage: mitosis). Also, the melting temperature came to 48.1 °C with HeLa Kyoto [2] (cell cycle stage: G1/S) and 48.8 °C in the data set on HeLa Kyoto [2] (cell cycle stage: mitosis). Also, in the data set with HeLa Kyoto [3], the “solubility in G1/S (log2)” value was 0.236. For the same sequence, in the data set on HeLa Kyoto [4], the “solubility change mitosis (log2)” value was -0.14.

As for “MAVLAALLRSGARSRSPLLRRLVQEIRYVERSYVSKPTLKEVVIVSATRTPIGSFLGSLSLLPATKLGSIAIQGAIEKAGIPKEEVKEAYMGNVLQGGEGQAPTRQAVLGAGLPISTPCTTINKVCASGMKAIMMASQSLMCGHQDVMVAGGMESMSNVPYVMNRGSTPYGGVKLEDLIVKDGLTDVYNKIHMGSCAENTAKKLNIARNEQDAYAINSYTRSKAAWEAGKFGNEVIPVTVTVKGQPDVVVKEDEEYKRVDFSKVPKLKTVFQKENGTVTAANASTLNDGAAALVLMTADAAKRLNVTPLARIVAFADAAVEPIDFPIAPVYAASMVLKDVGLKKEDIAMWEVNEAFSLVVLANIKMLEIDPQKVNINGGAVSLGHPIGMSGARIVGHLTHALKQGEYGLASICNGGGGASAMLIQKL [ACAT1]”, the thermal stability score with HeLa Kyoto [1] (setting [5]) is -1.2; in the data set with HeLa Kyoto [1] (cell cycle stage: mitosis) it was 0.833. Besides, the values for the melting temperature with HeLa Kyoto [2] (cell cycle stage: G1/S) and with HeLa Kyoto [2] (cell cycle stage: mitosis) were 54.5 °C and 54.8 °C, respectively. Besides, the “solubility in G1/S (log2)” value in the data set with HeLa Kyoto [3] stood at 0.493. Moreover, the “solubility change mitosis (log2)” value in the data set on HeLa Kyoto [4] was -0.0153.

For the origin of these results see the supplement of paper PMC5998384.
